This passage reports Kd results from PMC8870054.

The test has as its target CLOBY biosensor (His6-mClover3-spacer with TEV site-Src SH4, unique and SH3 domains-spacer-mRuby3). The test can be described thus: dynamic light scattering; hydrodynamic radius at variable concentrations up to 275 uM, 25 °C; apparent; dimer to monomers.

Consider “CLOBY biosensor (His6-mClover3-spacer with TEV site-Src SH4, unique and SH3 domains-spacer-mRuby3)”, for which the Kd is 700 µM.
